In the supplement of paper PMC10567573:

B1: TRIM35 (parent)
chain: DKELLCCSCQADPRHQGHRVQPVK

Variants of: B1
Experiment: protein stability index of a GFP-peptide fusion (GPS, HEK-293T) (PSI 1-6); higher = more stable
Details: c terminus: a fixed tail appended
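Also: lentivirally expressed fusions sorted by FACS into six bins by GFP to DsRed ratio, PSI derived from sequencing read proportions per bin multiplied by bin number.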

Protein stability index: each site, then its substitutions
C9: G 4.1 | P 4.89 | N 4.6 | Y 4.52 | M 4.03 | F 3.38 | A 3.85 | H 4.1 | E 4.87 | Q 4.65 | D 5.29 | L 3.09 | R 4.42 | I 4.14 | S 4.47 | V 3.27 | T 4.28 | K 4.64
S8: M 2.87 | P 3.59 | V 3.75 | G 4.14 | Y 2.97 | F 2.24 | L 2.98 | D 4.28 | Q 3.05 | H 2.92 | I 2.64 | A 3.31 | K 3.78 | C 4.16 | N 3.62 | E 4.61 | W 2.5
A11: E 3.26 | G 3.95 | I 3.52 | W 2.84 | Q 3.41 | N 4.24 | F 4.14 | H 3.29 | L 3.46 | M 2.76 | Y 2.93 | K 4.3 | C 3.23 | S 3.67 | T 4.25 | R 3.85 | V 3.13 | D 4.08 | P 3.87
C6: A 3.61 | P 3.64 | R 3.54 | L 3.41 | K 4.36 | V 2.25 | N 3.87 | T 3.76 | Y 3 | H 4.45 | F 2.99 | E 4.3 | I 2.61 | W 2.29 | M 3.74 | S 3.73 | D 5.31
Q10: A 3.41 | Y 3.49 | G 2.6 | L 2.85 | W 2.53 | N 4.07 | P 3.91 | M 3.27 | I 3.87 | F 3.01 | E 4.44 | D 4.1 | H 3.79 | R 3.68 | V 3.29 | C 3.38 | T 4.04 | K 3.8 | S 2.89
E3: V 2.45 | P 3.09 | S 3.94 | W 1.93 | Y 2.46 | T 3.72 | N 3.68 | R 2.81 | L 2.11 | Q 3.73 | M 2.12
D12: L 2.53 | A 3.52 | C 4.09 | I 2.45 | H 2.89 | E 3.78 | M 2.72 | K 3.81 | G 3.13 | F 2.73 | N 3.12
L5: R 3.32 | M 3.11 | S 4.44 | K 3.58 | N 2.66 | E 4.08 | T 4.29 | P 4.36 | Q 4.36 | D 4.43 | W 3.18 | Y 2.93 | F 3.55 | H 3.91 | I 3.76 | A 3.65 | C 3.88
C7: P 4.03 | G 4.23 | Y 3.83 | T 4.18 | N 4.1 | A 4.12 | I 3.29 | S 4.06 | R 3.76 | W 3.9 | M 3.62 | F 3.38 | E 4.44 | H 4.03 | K 3.88 | V 3.87 | L 3.66 | D 4.67 | Q 4.5
L4: S 3.8 | R 3.7 | P 3.85 | Q 4.36 | V 4.33 | I 2.52 | M 3.9 | Y 3.8 | E 3.41 | T 4.13 | H 4.08 | N 2.58 | K 4.07 | D 4.47 | G 4.47 | F 3.31 | W 2.68 | A 3.86 | C 4.27
